What all share (assay): coupled pyruvate kinase / lactate dehydrogenase assay, NADH oxidation at A340
Format in all cases: biochemical, Arabidopsis thaliana
Common to all, as to conditions: 50 mM Tris pH 7.5, 100 mM KCl, 10 mM MgCl2, 1 mM fructose, 10 mM phosphate, Michaelis-Menten fit

Substrate in series [1]: Nc1ncnc2c1ncn2[C@@H]1O[C@H](COP(=O)(O)OP(=O)(O)OP(=O)(O)O)[C@@H](O)[C@H]1O
The text has this: coupled pyruvate kinase / lactate dehydrogenase assay, NADH oxidation at A340 on FRK5

Substrate in series [2]: Nc1ncnc2c1ncn2[C@@H]1O[C@H](COP(=O)(O)OP(=O)(O)OP(=O)(O)O)[C@@H](O)[C@H]1O
The text has this: coupled pyruvate kinase / lactate dehydrogenase assay, NADH oxidation at A340 on FRK4
The source holds these as a separate data set.

Substrate in series [3]: Nc1ncnc2c1ncn2[C@@H]1O[C@H](COP(=O)(O)OP(=O)(O)OP(=O)(O)O)[C@@H](O)[C@H]1O
The text has this: coupled pyruvate kinase / lactate dehydrogenase assay, NADH oxidation at A340 on FRK1
The source holds these as a separate data set.

Substrate in series [4]: Nc1ncnc2c1ncn2[C@@H]1O[C@H](COP(=O)(O)OP(=O)(O)OP(=O)(O)O)[C@@H](O)[C@H]1O
The text has this:
coupled pyruvate kinase / lactate dehydrogenase assay, NADH oxidation at A340 on FRK3
This is another data set of the same source.

Substrate in series [5]: Nc1ncnc2c1ncn2[C@@H]1O[C@H](COP(=O)(O)OP(=O)(O)OP(=O)(O)O)[C@@H](O)[C@H]1O
The text has this: coupled pyruvate kinase / lactate dehydrogenase assay, NADH oxidation at A340 on FRK6
The source holds these as a separate data set.

Substrate in series [6]: Nc1ncnc2c1ncn2[C@@H]1O[C@H](COP(=O)(O)OP(=O)(O)OP(=O)(O)O)[C@@H](O)[C@H]1O
The text has this: coupled pyruvate kinase / lactate dehydrogenase assay, NADH oxidation at A340 on FRK2
This is another data set of the same source.

B1: FRK5 (Arabidopsis thaliana) (protein)
chain: MASSTGEKGLIVSFGEMLIDFVPTVSGVSLSESPGFLKAPGGAPANVAIAVSRLGGRAAFVGKLGDDDFGHMLAGILRKNGVDDQGINFDEGARTALAFVTLRSDGEREFMFYRNPSADMLLRPDELNLELIRSAKVFHYGSISLITEPCRSAHMKAMEVAKEAGALLSYDPNLREPLWPSPEEARTQIMSIWDKADIIKVSDVELEFLTENKTMDDKTAMSLWHPNLKLLLVTLGEKGCTYFTKKFHGSVETFHVDAVDTTGAGDSFVGALLQQIVDDQSVLEDEARLRKVLRFANACGAITTTKKGAIPALPTDIEALSFLKDQKKRQTNLKFSKWCCTASPC
With B1, in series [1], the Michaelis-Menten constant (Km) was found to be 180 ± 57 µM and the turnover number (kcat) was 4.8 s⁻¹.

B2: FRK4 (Arabidopsis thaliana) (protein)
chain: MANTPLIVSFGEMLIDFVPDTSGVSLAESTGFLKAPGGAPANVACAITKLGGKSAFIGKFGDDEFGHMLVNILKKNGVNSEGVCFDTNARTALAFVTLKKDGEREFMFYRNPSADMLLKESELNKDLIKKAKIFHYGSISLISEPCRTAHMAAMKTAKDAGVLLSYDPNVRLPLWPSTEAAIEGIKSIWNEADIIKVSDDEVTFLTRGDAEKDDVVLSLMHDKLKLLIVTDGEKGCRYYTKKFKGRVPGYAVKAVDTTGAGDSFVGAFLVSLGKDGSILDDEGKLKEALAFANACGAVCTTQKGAIPALPTPADAQKLMKSKSK
On to B2, for which, in series [2], the Km stood at 95 ± 7.9 µM and the kcat came out at 11.1 s⁻¹.

B3: FRK1 (Arabidopsis thaliana) (protein)
chain: MGEDAISGNLKNLTIDTRDSETLVVCFGEMLIDFVPTVGGVSLAEAPAFKKAPGGAPANVAVGVSRLGGSSAFIGKVGDDEFGRMLADILRLNNVDNSGMRFDHNARTALAFVTLRGDGEREFLFFRHPSADMLLLESELDKNLIQKAKIFHYGSISLIEEPCRSTQLVAMKIAKAAGSLLSYDPNLRLPLWPSEEAARKEIMSIWNLADVIKISEDEITFLTGGDDPYDDDVVLQKLFHPNLKLLVVSEGPNGCRYYTQEFKGRVGGVKVKPVDTTGAGDAFVSGLLNSLASDLTLLKDEKKLREALLFANACGAITVTERGAIPAMPSMDAVQDLLSSTRS
Regarding B3, in series [3], the Michaelis constant (Km) was found to be 52 ± 7.8 µM and the catalytic constant (kcat) is 14.2 s⁻¹.

B4: FRK3 (Arabidopsis thaliana) (protein)
chain: SNLKGRALSSDGSTQESPYVVCFGEMLIDFVPTTSGLSLADAPAFKKAPGGAPANVAVGIARLGGSSAFIGKVGEDEFGYMLANILKDNNVNNDGMRFDPGARTALAFVTLTNEGEREFMFYRNPSADMLLEESELDFDLIKKAKIFHYGSISLITEPCKSAHISAAKAAKEAGVILSYDPNLRLPLWPSADNAREEILSIWETADIIKISEEEIVFLTKGEDPYDDNVVRKLFHPKLKLLLVTEGPEGCRYYTKDFSGRVHGLKVDVVDTTGAGDAFVAGILSQLANDLSLLQDEERLREALMFANACGALTVKVRGAIPALPTKEAVHEALLKAVV
In the case of B4, in series [4], the Km turned out to be 52 ± 9.8 µM and the catalytic constant (kcat) was determined as 14.3 s⁻¹.

B5: FRK6 (Arabidopsis thaliana) (protein)
chain: MTSSNGDNKGLVVSFGEMLIDFVPTESGVSLSESSGFLKAPGGAPANVAIAVSRLGGRAAFVGKLGDDEFGHMLAGILRKNDVDDQGINFDKGARTALAFVTLRSDGEREFMFYRNPSADMLLRPDELNLELIRSAKVFHYGSISLITEPCRSAHMKAMEVAKEAGALLSYDPNLREPLWPSPEEARKQIMSIWDKADIIKVSDVELEFLTGNKTIDDETAMSLWHPNLKLLLVTLGENGCRYYTKDFHGSVETFHVDAVDTTGAGDSFVGALLNQIVDDQSVLEEEERLRKVLRFANACGAITTTKKGAIPALPTDCEALSFLKIQVE
In the case of B5, in series [5], the Michaelis constant (Km) stood at 160 ± 21 µM and the catalytic constant (kcat) stood at 12.8 s⁻¹.

B6: FRK2 (Arabidopsis thaliana) (protein)
chain: MASNGDKGLIVSFGEMLIDFVPTESGVSLAEAPGFLKAPGGAPANVAIAVSRLGGRSAFVGKLGDDEFGHMLAGILRKNGVDDQGINFDTGARTALAFVTLRADGDREFMFYRNPSADMLLRPDELNLDLIRSAKVFHYGSISLIVEPCRSAHLKAMEVAKEAGALLSYDPNLREPLWPSKEEAKTQIMSIWDKAEIIKVSDVELEFLTGSNKIDDETALTLWHPNLKLLLVTLGEKGCRYYTKTFKGAVDPFHVNAVDTTGAGDSFVGALLNQIVDDRSVLEDEERLRKVLRFANACGAITTTKKGAIPALPSDAEVRSFLEKK
Turning to B6, in series [6], the Michaelis constant (Km) amounted to 85 ± 8.7 µM and the turnover number (kcat) worked out at 10.3 s⁻¹.

These data come from paper PMC5405513, “Identification and biochemical characterization of the fructokinase gene family in Arabidopsis thaliana” (BMC Plant Biology, 2017).
